Our source for the Kd values is patent publication US20110166036A1.

pKd: −log10 of the molar value.

This assay deals with recombinant human sortilin (human) (UniProt Q99523). Briefly: SPR (BIAcore), sortilin immobilized on CM5 chip, ApoB 10, 20, 50 nM. Background: Surface plasmon resonance follows binding to a sensor surface in real time, without labels.
Sequence of recombinant human sortilin (human) (Q99523 78-755 limits assumed, form in doubt): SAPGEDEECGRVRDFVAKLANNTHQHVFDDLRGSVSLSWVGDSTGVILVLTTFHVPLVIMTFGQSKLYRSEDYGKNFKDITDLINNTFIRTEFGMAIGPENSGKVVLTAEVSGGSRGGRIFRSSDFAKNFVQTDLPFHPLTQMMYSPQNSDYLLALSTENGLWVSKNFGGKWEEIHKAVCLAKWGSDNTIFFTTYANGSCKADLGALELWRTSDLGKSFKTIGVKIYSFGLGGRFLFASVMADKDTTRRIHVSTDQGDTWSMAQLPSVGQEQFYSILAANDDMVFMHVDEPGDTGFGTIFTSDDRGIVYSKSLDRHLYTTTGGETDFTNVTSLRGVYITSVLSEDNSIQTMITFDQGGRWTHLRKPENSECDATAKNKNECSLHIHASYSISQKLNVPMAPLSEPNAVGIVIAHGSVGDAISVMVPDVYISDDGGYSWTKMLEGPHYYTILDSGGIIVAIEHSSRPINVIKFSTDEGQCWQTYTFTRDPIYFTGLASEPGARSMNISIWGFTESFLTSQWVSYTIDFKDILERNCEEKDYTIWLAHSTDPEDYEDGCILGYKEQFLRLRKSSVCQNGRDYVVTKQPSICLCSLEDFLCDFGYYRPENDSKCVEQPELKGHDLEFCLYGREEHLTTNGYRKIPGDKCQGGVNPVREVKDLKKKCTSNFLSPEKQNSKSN

ApoB (ligand): the pKd was 9.40.

Broadly, the pKd is the negative decadic logarithm of the Kd, by convention in mol/L.
